These results are taken from patent US20020119165A1 (University of Pennsylvania, published 2002).

The target in this experiment is T1, HveA(200t) (UniProt Q92956 39-200, limits assumed).
T1 construct: Immobilized on microtiter wells in all ELISAs; also called soluble form of HveA; HVEM; not shown: C-terminal histidine tag
T1 sequence (looked up): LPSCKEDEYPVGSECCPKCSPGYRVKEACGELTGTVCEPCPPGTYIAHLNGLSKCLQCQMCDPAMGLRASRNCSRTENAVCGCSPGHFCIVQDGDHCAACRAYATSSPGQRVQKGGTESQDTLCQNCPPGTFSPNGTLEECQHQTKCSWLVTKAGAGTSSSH
Kind of experiment: inferred from competition ELISA on immobilized HveA. (In an ELISA, binding on a coated surface is turned into a signal by an enzyme label.)

Ends that are not written are not given here.

B1: BP-2 (3, 9 Ala) (peptide)
peptide: GSADGFRVAYMH
modifications: not fully specified (C-terminus)
notes: Linear analog of BP-2 in which the two cysteine residues are replaced by alanine; also called linear form of BP-2
Take B1: the binding result is reported as “no binding”.
